2 molecules from article PMC11096365, “Cryo-EM structures of the human Elongator complex at work” (Nature Communications, 2024) can be followed below.

For series [1], the target named is T1, human ELP123 (Homo sapiens, UniProt Q9H9T3).
T1 construct: gene ELP3; recombinant ELP123 subcomplex (1:1:1, two lobes), codon-optimized ORFs, C-terminal Twin-Strep-Tag on ELP3, insect cells (SuperSf9-3); ELP1 148 kDa, ELP2 93 kDa, ELP3-TST 65 kDa; with Elongator complex protein 1; Elongator complex protein 2
T1 sequence (Q9H9T3 1-547): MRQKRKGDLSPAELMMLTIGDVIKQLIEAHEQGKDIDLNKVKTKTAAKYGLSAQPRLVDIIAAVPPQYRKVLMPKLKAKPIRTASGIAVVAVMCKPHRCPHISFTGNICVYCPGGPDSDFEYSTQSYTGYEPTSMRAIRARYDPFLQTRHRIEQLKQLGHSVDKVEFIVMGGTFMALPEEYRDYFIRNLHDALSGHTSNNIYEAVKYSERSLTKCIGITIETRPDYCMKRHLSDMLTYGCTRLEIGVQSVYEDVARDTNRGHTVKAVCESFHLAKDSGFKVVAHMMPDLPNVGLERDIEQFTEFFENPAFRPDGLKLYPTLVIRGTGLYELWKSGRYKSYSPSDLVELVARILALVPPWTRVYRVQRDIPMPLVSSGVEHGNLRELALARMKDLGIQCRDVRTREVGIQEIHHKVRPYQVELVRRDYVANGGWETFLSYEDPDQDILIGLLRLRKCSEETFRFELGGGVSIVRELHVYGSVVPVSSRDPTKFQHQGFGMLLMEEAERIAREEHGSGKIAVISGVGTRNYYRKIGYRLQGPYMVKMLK
T1 sequence (O95163 1-1332 partner): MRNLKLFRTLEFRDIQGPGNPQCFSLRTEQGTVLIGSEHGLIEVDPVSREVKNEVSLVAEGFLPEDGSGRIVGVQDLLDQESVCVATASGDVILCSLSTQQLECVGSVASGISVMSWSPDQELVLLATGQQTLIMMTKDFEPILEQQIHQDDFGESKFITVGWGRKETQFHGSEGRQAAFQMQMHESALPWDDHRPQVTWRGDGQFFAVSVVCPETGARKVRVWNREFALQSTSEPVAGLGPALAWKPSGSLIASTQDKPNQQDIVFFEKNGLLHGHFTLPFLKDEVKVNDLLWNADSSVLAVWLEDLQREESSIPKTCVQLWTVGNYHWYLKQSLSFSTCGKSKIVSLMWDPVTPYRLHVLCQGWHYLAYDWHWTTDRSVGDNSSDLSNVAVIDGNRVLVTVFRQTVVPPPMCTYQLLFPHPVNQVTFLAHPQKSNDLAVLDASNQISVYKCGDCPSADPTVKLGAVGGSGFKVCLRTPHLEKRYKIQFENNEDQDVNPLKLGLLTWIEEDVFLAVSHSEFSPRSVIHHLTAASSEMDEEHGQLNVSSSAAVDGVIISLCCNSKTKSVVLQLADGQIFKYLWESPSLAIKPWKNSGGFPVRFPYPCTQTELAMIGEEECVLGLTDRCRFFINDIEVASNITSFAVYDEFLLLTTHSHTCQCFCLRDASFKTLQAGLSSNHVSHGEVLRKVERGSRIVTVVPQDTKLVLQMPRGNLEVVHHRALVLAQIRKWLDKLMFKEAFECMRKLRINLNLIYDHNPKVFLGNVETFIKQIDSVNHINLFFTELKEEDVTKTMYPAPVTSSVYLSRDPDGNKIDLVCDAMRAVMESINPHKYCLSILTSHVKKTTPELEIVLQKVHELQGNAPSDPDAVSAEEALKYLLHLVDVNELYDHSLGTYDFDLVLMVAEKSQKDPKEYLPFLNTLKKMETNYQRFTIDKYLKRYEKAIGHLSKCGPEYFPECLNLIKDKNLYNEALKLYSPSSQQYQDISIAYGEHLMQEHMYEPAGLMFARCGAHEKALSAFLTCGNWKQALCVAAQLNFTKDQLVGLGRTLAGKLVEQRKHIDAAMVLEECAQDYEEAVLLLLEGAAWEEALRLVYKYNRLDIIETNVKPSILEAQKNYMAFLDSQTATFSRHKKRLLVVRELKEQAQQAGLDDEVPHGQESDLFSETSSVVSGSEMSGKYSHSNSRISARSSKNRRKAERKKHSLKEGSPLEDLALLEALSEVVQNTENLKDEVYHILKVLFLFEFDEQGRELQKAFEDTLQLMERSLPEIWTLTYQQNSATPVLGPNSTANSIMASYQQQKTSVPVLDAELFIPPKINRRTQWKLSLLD
T1 sequence (Q6IA86 1-826 partner): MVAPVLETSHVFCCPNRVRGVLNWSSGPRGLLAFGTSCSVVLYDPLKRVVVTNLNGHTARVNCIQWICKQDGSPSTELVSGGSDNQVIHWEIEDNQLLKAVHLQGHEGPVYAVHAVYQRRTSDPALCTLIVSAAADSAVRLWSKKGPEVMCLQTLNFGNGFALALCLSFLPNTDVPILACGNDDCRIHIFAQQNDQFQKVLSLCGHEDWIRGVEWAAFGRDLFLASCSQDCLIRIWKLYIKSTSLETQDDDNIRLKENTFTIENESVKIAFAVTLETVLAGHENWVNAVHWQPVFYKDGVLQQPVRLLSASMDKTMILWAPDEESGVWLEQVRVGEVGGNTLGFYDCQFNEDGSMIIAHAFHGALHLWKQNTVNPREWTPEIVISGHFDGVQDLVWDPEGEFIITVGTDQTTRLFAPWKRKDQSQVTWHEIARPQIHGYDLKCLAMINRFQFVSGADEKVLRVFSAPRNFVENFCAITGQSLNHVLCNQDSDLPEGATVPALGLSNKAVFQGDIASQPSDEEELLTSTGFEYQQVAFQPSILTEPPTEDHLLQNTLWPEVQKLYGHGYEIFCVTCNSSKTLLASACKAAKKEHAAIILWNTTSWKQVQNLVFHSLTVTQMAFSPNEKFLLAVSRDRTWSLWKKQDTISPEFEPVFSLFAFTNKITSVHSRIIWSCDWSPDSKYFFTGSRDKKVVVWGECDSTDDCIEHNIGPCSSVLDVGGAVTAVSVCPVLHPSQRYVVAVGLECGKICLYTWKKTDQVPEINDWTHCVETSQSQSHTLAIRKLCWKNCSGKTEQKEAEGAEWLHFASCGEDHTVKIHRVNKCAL
As to the kind of experiment: cryo-EM structure ([…] Å). Type of series: binding. The settings on record: with tRNA-GlnUUG and SAM; KAT domain of ELP3; pH 7.5; hydrolysis induced by tRNA.

For series [2], the target named is ELP1;ELP2;ELP3 K164A (Homo sapiens;Homo sapiens;Homo sapiens, UniProt O95163;Q6IA86;Q9H9T3 1-1332;1-826;1-547, ||K164A). As to the kind of experiment: MST; MST: 20 mM HEPES pH 7.5, 100 mM NaCl, 5 mM DTT, 0.05% Tween 20; incubated at 4 C 30 min, measured at 25 C; Cy5-tRNA 14 or 30 nM. Cryo-EM: 20 mM HEPES pH 7.5, 100 mM NaCl, 2 mM MgCl2, 2 mM DTT. The settings on record: protein: recombinant;recombinant;recombinant; tags: ;;C-terminal Twin-Strep-Tag; chain copies: 2;2;2; label: internal Cy5 (5% Cy5-CTP) for MST; tRNA fold.

Series [3] has as its target ELP1;ELP2;ELP3 R242K (Homo sapiens;Homo sapiens;Homo sapiens, UniProt O95163;Q6IA86;Q9H9T3 1-1332;1-826;1-547, ||R242K). The series is described as above. The settings on record: protein: recombinant;recombinant;recombinant; tags: ;;C-terminal Twin-Strep-Tag; chain copies: 2;2;2; label: internal Cy5 (5% Cy5-CTP) for MST; tRNA fold.
Series [4] has as its target ELP1;ELP2;ELP3 Y529A/Y530A (Homo sapiens;Homo sapiens;Homo sapiens, UniProt O95163;Q6IA86;Q9H9T3 1-1332;1-826;1-547, ||Y529A;Y530A). The description is as above. As to conditions: protein: recombinant;recombinant;recombinant; tags: ;;C-terminal Twin-Strep-Tag; chain copies: 2;2;2; label: internal Cy5 (5% Cy5-CTP) for MST; tRNA fold.
The target of series [5] is ELP1;ELP2;ELP3 wild type (Homo sapiens;Homo sapiens;Homo sapiens, UniProt O95163;Q6IA86;Q9H9T3 1-1332;1-826;1-547, ||). The description is as above. As to conditions: protein: recombinant;recombinant;recombinant; tags: ;;C-terminal Twin-Strep-Tag; chain copies: 2;2;2; label: internal Cy5 (5% Cy5-CTP) for MST; tRNA fold.
Series [6] concerns the target ELP1;ELP2;ELP3 E474A (Homo sapiens;Homo sapiens;Homo sapiens, UniProt O95163;Q6IA86;Q9H9T3 1-1332;1-826;1-547, ||E474A). Described as above. As to conditions: protein: recombinant;recombinant;recombinant; tags: ;;C-terminal Twin-Strep-Tag; chain copies: 2;2;2; label: internal Cy5 (5% Cy5-CTP) for MST; tRNA fold.
For series [7], the target named is ELP1;ELP2;ELP3 R402T (Homo sapiens;Homo sapiens;Homo sapiens, UniProt O95163;Q6IA86;Q9H9T3 1-1332;1-826;1-547, ||R402T). Described as above. The settings on record: protein: recombinant;recombinant;recombinant; tags: ;;C-terminal Twin-Strep-Tag; chain copies: 2;2;2; label: internal Cy5 (5% Cy5-CTP) for MST; tRNA fold.
The target in series [8] is ELP1;ELP2;ELP3 Y363A (Homo sapiens;Homo sapiens;Homo sapiens, UniProt O95163;Q6IA86;Q9H9T3 1-1332;1-826;1-547, ||Y363A). The description is as above. The settings on record: protein: recombinant;recombinant;recombinant; tags: ;;C-terminal Twin-Strep-Tag; chain copies: 2;2;2; label: internal Cy5 (5% Cy5-CTP) for MST; tRNA fold.
Series [9] deals with ELP1;ELP2;ELP3 K280A (Homo sapiens;Homo sapiens;Homo sapiens, UniProt O95163;Q6IA86;Q9H9T3 1-1332;1-826;1-547, ||K280A). The description is as above. As to conditions: protein: recombinant;recombinant;recombinant; tags: ;;C-terminal Twin-Strep-Tag; chain copies: 2;2;2; label: internal Cy5 (5% Cy5-CTP) for MST; tRNA fold.
The target in series [10] is ELP1;ELP2;ELP3 H476A (Homo sapiens;Homo sapiens;Homo sapiens, UniProt O95163;Q6IA86;Q9H9T3 1-1332;1-826;1-547, ||H476A). Described as above. As to conditions: protein: recombinant;recombinant;recombinant; tags: ;;C-terminal Twin-Strep-Tag; chain copies: 2;2;2; label: internal Cy5 (5% Cy5-CTP) for MST; tRNA fold.

Chain of ELP1;ELP2;ELP3 Y529A/Y530A (Q9H9T3 whole entry Y529A/Y530A, chain 3 of 3, one chain of several): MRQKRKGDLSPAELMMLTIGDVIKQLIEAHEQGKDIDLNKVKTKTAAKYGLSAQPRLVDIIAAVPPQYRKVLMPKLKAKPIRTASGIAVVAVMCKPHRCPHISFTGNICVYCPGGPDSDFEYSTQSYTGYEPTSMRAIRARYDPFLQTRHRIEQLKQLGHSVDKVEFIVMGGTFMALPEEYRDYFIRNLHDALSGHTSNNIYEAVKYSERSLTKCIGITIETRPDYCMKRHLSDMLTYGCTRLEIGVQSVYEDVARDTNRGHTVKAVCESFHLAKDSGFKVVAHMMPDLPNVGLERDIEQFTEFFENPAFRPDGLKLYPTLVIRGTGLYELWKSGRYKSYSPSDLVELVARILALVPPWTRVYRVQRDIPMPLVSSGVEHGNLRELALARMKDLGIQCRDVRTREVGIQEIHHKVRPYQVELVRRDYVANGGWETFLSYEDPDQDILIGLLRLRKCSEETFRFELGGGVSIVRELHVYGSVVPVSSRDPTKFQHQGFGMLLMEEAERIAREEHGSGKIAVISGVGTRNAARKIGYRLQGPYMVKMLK

With `CC(=O)SCCNC(=O)CCNC(=O)[C@H](O)C(C)(C)COP(=O)(O)OP(=O)(O)OC[C@H]1O[C@@H](n2cnc3c(N)ncnc32)[C@H](O)[C@@H]1OP(=O)(O)O` [acetyl-CoA], in series [1], the “cryo-EM structure (2.87 Å)” value is reported as “well-resolved ligand density that unambiguously fits a complete acetyl-CoA molecule”.

B1: tRNAGlnUUG (structured_RNA)
RNA: GGCCCCAUGGUGUAAUGGUUAGCACUCUGGACUUUGAAUCCAGCGAUCCGAGUUCAAAUCUCGGUGGGACCUCCA
Regarding B1, the binding result in series [2], in series [3], in series [6], in [7], in series [8] and in series [9] was “binds” each time. Further, the binding result in series [10] is listed as “binds”. The results for the dissociation constant Kd in series [4] and in series [5] were 94.7 ± 5.2 nM and 37.6 ± 5.3 nM, respectively.

Broadly, the Kd is the equilibrium constant for the complex coming apart.
